Source: the RNAGym collection of RNA variant scans (doi:10.7554/elife.90254)

B1: LINE1-mini (parent)
chain: GGCAGAGCUCAACACAGCGUGGCAAAGUGGCUGUGGCUAGACUGCC

Variants of: B1
Experiment: self-cleavage, relative activity (ratio to wild type); higher = more cleavage; in vitro, sequencing; the parent is a self-cleaving ribozyme

Variant	self-cleavage
GGCAGAGCUCAACACAGCGUGGCAAAGUGGCUGUGGCUAUACGGCC [G40U U43G]	0.47
GGCAGAGCUCAACACAGCGUAGCAAAGCGGCUGUGGCUAGACUGCC [G21A U28C]	1.44
GGCAGACCUCAAUACAGCGUGGCAAAGUGGCUGUGGCUAGACUGCC [G7C C13U]	0.14
GGCAGACCUCAAAACAGCGUGGCAAAGUGGCUGUGGCUAGACUGCC [G7C C13A]	0.11
GGCAGAGCGCAACACCGCGUGGCAAAGUGGCUGUGGCUAGACUGCC [U9G A16C]	0.03
GGCAGAGCUCAACACAGCGUGACAAAGUGGCUGUGCCUAGACUGCC [G22A G36C]	0.13
GGCAGAGCUCAACACAGCCUGUCAAAGUGGCUGUGGCUAGACUGCC [G19C G22U]	0.51
GGCAGAGCUCAACACAGCGUGGCCAAGUGGCUGUGGCUAUACUGCC [A24C G40U]	0.11
GGCAGAGCUCAACCCAGCGAGGCAAAGUGGCUGUGGCUAGACUGCC [A14C U20A]	0.08
GGCAGAGCUCAACUCAGCGUGGCAAAGUGGCUGUGGCCAGACUGCC [A14U U38C]	0.17
GGCAGAGCUCAACACAGCGUGGCAAAGUGGGUGUGGCUAGACUACC [C31G G44A]	0.05
GACAGAGCUCAACACAGCGUGGCAAAGUGGCUGUGGCUAUACUGCC [G2A G40U]	0.29
GGCAUAGUUCAACACAGCGUGGCAAAGUGGCUGUGGCUAGACUGCC [G5U C8U]	0.26
GGCAGAGCUCAACACAGCGUGGCAAAGUGGCUGUGGCUAGAAUGUC [C42A C45U]	0.13
GGCAGAGCUCAACACAGCGUGGCAAAGUGGCAGUGGCUAGACUUCC [U32A G44U]	0.06
GGCAGAGCUCAAGGCAGCGUGGCAAAGUGGCUGUGGCUAGACUGCC [C13G A14G]	0.08
AGCAGAGCUCAACACAGCGUGGCAAAGCGGCUGUGGCUAGACUGCC [G1A U28C]	0.39
GGCAGAGCUCGACACAGCUUGGCAAAGUGGCUGUGGCUAGACUGCC [A11G G19U]	0.02
GGCAGUGCUCAACACAGCGUGGCAAAGUGUCUGUGGCUAGACUGCC [A6U G30U]	1.27
GGCGGAGCUCAACACAGCGUGGCAAAGUGGCUGUAGCUAGACUGCC [A4G G35A]	0.15
GGCAGAGCCCAACACAGCGUGGCAAAGUGGCUGAGGCUAGACUGCC [U9C U34A]	0.04
GGCAGAGCUCAACACGGCAUGGCAAAGUGGCUGUGGCUAGACUGCC [A16G G19A]	1.31
GGCAGAGCUCAACACAGCGUGGCAAAGUGGCUGUCGCUAGACCGCC [G35C U43C]	0.12

Variant	self-cleavage
GGCAGAGCUCAACACAGCGUGGCAAAGCGGCUGUGGCUAGACUUCC [U28C G44U]	0.34
GGCAGAGCUCAAAACAGCGUGGCAAAGUGGCUGUGCCUAGACUGCC [C13A G36C]	0.06
GGCAGAGCUCAACACAGCGUCGCAAAGUGGCUGUGGCUAGCCUGCC [G21C A41C]	0.07
GGCAGAGCUCAACACAGCGUGGCAAAGUGGCUGUCGCUAGACUGUC [G35C C45U]	0.08
GGCAGAGCUCAACACAGCGUGUCAAAGUGCCUGUGGCUAGACUGCC [G22U G30C]	2.28
GGCAGAGCUCAACACAGCGUGGCUAAGUGGCUGUGGGUAGACUGCC [A24U C37G]	0.05
GGCAGAGCUCAACACAGCGUGGCAAACUGGCUGUGGCCAGACUGCC [G27C U38C]	0.29
GGCAGAGCUCAACACAGCGUGGCUAAGUGGCUGUGGCUAGAGUGCC [A24U C42G]	0.06
GGCAGAGCUCAACACAGCGUUGCACAGUGGCUGUGGCUAGACUGCC [G21U A25C]	1.44
GGCAGAGCUCAACACAGCCUGGCAAAUUGGCUGUGGCUAGACUGCC [G19C G27U]	0.43
GGCAGAGCUCAACACAGCAUGGCAAAGUGGCUGUGGCCAGACUGCC [G19A U38C]	1.09
GGCAGACCUCAACACAGCGUGGCAAAGUGGCAGUGGCUAGACUGCC [G7C U32A]	0.05
GGCAGAGCUCAACACAGCGUGGCAAACUGGCUGUGGCUAGACUGAC [G27C C45A]	0.29
GGCAGAGCUCAACACAGCGUGGCAAAGUGGCUGUGGCGAGACUGUC [U38G C45U]	0.05
GGCCGAGCUCAACACAGCGUGGCAAAGUGGCUGUGGCUAGACUGCG [A4C C46G]	0.13
GGCAGAGCCCAACACAGCGUGGCAAAGUGGCUGUGGCUCGACUGCC [U9C A39C]	0.02
GGCAGAGCUCAACACAGGGUGGCAAAGUGGCUGUGGCUAGACUGCU [C18G C46U]	0.4
GGCAGAGCUCAACACAGCGUGGCAAAGUGGCUGUGGCAAGACUGCU [U38A C46U]	0.3
GGCCGAGCUCAACACAGCGUGGCAAAGUGGCUGUGGCUGGACUGCC [A4C A39G]	0.9
GGCAGAGCUUAACACAGCGUGGCAAAGUGGCUGUGCCUAGACUGCC [C10U G36C]	0.05
GGCAGAGCUCGACACAGCGUGGCAAAGUGACUGUGGCUAGACUGCC [A11G G30A]	0.04
GGCAGAGCUCAACACAGCGCGGCAAAGUGGCUAUGGCUAGACUGCC [U20C G33A]	0.1
GGCAGAGCUCAACACAGGGUGGCAAAGUGGCUGUGACUAGACUGCC [C18G G36A]	0.1

Variant	self-cleavage
GGCAGAGCUCAACACAGUGUGGCAAAGUGGCUGUGGCUAGACUGCC [C18U]	1.21
GGCAGAGCCCAACACAGCGUGGCAUAGUGGCUGUGGCUAGACUGCC [U9C A25U]	0.04
GGCAGAGCUAAACACAGCGUGGCAAAAUGGCUGUGGCUAGACUGCC [C10A G27A]	0.06
GGCAGAGCUCAACACAGCGUGGCAAAGUGUCUGUGGCCAGACUGCC [G30U U38C]	1.12
GGCAGAGCUCGACACAGCGUCGCAAAGUGGCUGUGGCUAGACUGCC [A11G G21C]	0.02
GGCAGAGCUCAACACAGCGUGGCAAAAUGGCUGUGGCUAGACUGUC [G27A C45U]	1.88
GGCAGAGCUCAACACAGCGUGGCAAAGUGGCUGUGGCUAGAGCGCC [C42G U43C]	0.03
GGCAGAGCUCAACACAGCGCGGCAAAGUGUCUGUGGCUAGACUGCC [U20C G30U]	0.41
GGCGGAGCUCAACACAGCGUGGCUAAGUGGCUGUGGCUAGACUGCC [A4G A24U]	1.02
GGCAGAGCUCAACGCAGCGUGGCAAAGUGACUGUGGCUAGACUGCC [A14G G30A]	0.28
GGCAGAGCUCAACACAGCGUGGCAAUCUGGCUGUGGCUAGACUGCC [A26U G27C]	0.66
GGCAGAGCUCAACACAGUGUGGCAAAGUGGGUGUGGCUAGACUGCC [C18U C31G]	0.05
GGCAGAGCUCAACACAGCGUGGCAAAGUGGGUGUGGCUAGCCUGCC [C31G A41C]	0.05
GGCAGAGCUCAACACAUCGCGGCAAAGUGGCUGUGGCUAGACUGCC [G17U U20C]	0.64
GGCAUAGCUCAACACAGCAUGGCAAAGUGGCUGUGGCUAGACUGCC [G5U G19A]	0.33
GGCAGAGCUCAACACAGCGUGGCGAAGCGGCUGUGGCUAGACUGCC [A24G U28C]	0.72
GGCAGAGUUCAACACAGCGUGGCAAAGUAGCUGUGGCUAGACUGCC [C8U G29A]	0.21
GCCAGAGCUCAACACAGCGUGGUAAAGUGGCUGUGGCUAGACUGCC [G2C C23U]	0.16
GGCAGAGCUCAACACAGCGUGGCAAAGUGGCCGUGGCUAGACUGGC [U32C C45G]	0.03
GGCAGAGCUCAACAUAGCGUCGCAAAGUGGCUGUGGCUAGACUGCC [C15U G21C]	1.81
GGCAGAGCUCGACACAGCGUGGCAAAGUGGCUGGGGCUAGACUGCC [A11G U34G]	0.03
UGCAGAGCUCAACACAGCGUGGCAAAGUGGCUGUGGCUAGACUUCC [G1U G44U]	0.15
GGCAGAGCUCAACAACGCGUGGCAAAGUGGCUGUGGCUAGACUGCC [C15A A16C]	0.08

Variant	self-cleavage
GGCAGAGCUCAACACAGCGUGGCAAAGUGGCUGUGGAUAAACUGCC [C37A G40A]	0.19
GGCAGAGCUCAACACAGCGUGGCAGAGUGGCUGGGGCUAGACUGCC [A25G U34G]	0.12
GGCAGAGCUCAACACACCGUGGCAAAGUGGCUGUGGCUAAACUGCC [G17C G40A]	0.04
GGCAGAGCUCAACAGAGCGUGGCAAAGUGGCUGUGUCUAGACUGCC [C15G G36U]	0.04
GGCAGAGCUCAACACAGCGAGGCAAAGUGGCUGUGGCUAGACCGCC [U20A U43C]	0.13
GGCAGAGCUCAACACAGCGUGGCAAAGUGGCUGGGGCUAGACUGCC [U34G]	0.24
GGCAGAGCUCCACACAGCGUGGCAAAGUGGCUGUGGCUAGACAGCC [A11C U43A]	0.01
GGCAGAGCUCAACACAGCGUGGCAAAGUGGCUGUAGCUAUACUGCC [G35A G40U]	0.05
GGCAGAGCUCAACACAGCGUGGCAAAUUGGCUGUGGUUAGACUGCC [G27U C37U]	0.07
GGCAGAGCUCGACACAGCGUGGCAAAGUGGCUGUGGCUAGAGUGCC [A11G C42G]	0.01
GGCAGAGCUCAACACAGCUUGGCAAAGUGGCUGUGGCUAGACUGGC [G19U C45G]	0.82
GCCAGAGCUCAACACAGCGUGGCAAAGUGGCUGUAGCUAGACUGCC [G2C G35A]	0.06
GGCAGAGCUCACCACAGCGUGGCAAAGUGGCUGUGGCAAGACUGCC [A12C U38A]	0.01
GGCAGAGAUCAACACAGCGUGGCAAAGUGGCUGUGGGUAGACUGCC [C8A C37G]	0.1
GGCAGAGCUCAACACAGCGUGGCAGAGUGGCUGUGGCUACACUGCC [A25G G40C]	0.06
GGCAGAGCUCAACACAGCGUGGCAAAGCGGUUGUGGCUAGACUGCC [U28C C31U]	0.45
GGUAGAGCUCAACACAGCGUGGCAGAGUGGCUGUGGCUAGACUGCC [C3U A25G]	0.27
GGCAGAGCUCAACACAGCGUGGCAAAGUGACUGUGGCUAGACUGCG [G30A C46G]	1.5
GGCAGAGCUCAACACAGCGUGGCAAAGUGACUGUGGCUAGACUGCA [G30A C46A]	1.15
GGCAGAGCUCAACACAGCGUGGCAAAGCGGCUGUGCCUAGACUGCC [U28C G36C]	0.28
GGCAGCGCUCAACACAGCGUGGCAAAGUGGCUGUGGCCAGACUGCC [A6C U38C]	0.21
GGCAGAGCUCAACACAGCGUGGCAAAUUGGCCGUGGCUAGACUGCC [G27U U32C]	0.19
GGCAGAACUCACCACAGCGUGGCAAAGUGGCUGUGGCUAGACUGCC [G7A A12C]	0.02

Variant	self-cleavage
GGCAGAGCUCAACACAGCGUGGCAAAGUGGCUGGGGCUAGGCUGCC [U34G A41G]	0.05
GGCAGAGCUCAACACAGCGUGGCAAAGUGGCUGUGGCUAGAUGGCC [C42U U43G]	0.15
GGCAGAGGUCAACACAGCGUGGCAAAGUGGCUGUGGCUAGAGUGCC [C8G C42G]	0.06
GGCAGAGCUCAACACAGCGUGGCAAAGUGGCUGUGGCGAGACCGCC [U38G U43C]	0.05
GGCAGAGCUCAACACAGCGUGGCGAAGUGGCUGUGGUUAGACUGCC [A24G C37U]	0.05
GGCAGAGCUCAACACAACGUGGCAAAGUGGCUGUGGCUAGACUCCC [G17A G44C]	0.05
GGCGGAGCUCAACAUAGCGUGGCAAAGUGGCUGUGGCUAGACUGCC [A4G C15U]	0.65
GGCAGAGCUCAACACAGCGUGACAAAGUGGCUGUGGCUAGCCUGCC [G22A A41C]	0.09
GGCAGAGCUCAACACAGCGUGUCAAAGUGGCUUUGGCUAGACUGCC [G22U G33U]	0.28
GGCAGAGCUCAACACAGCGUGGCAAAGUGGCUGCCGCUAGACUGCC [U34C G35C]	0.06
GGCAGCGCUCAGCACAGCGUGGCAAAGUGGCUGUGGCUAGACUGCC [A6C A12G]	0.04
GGCAGAGCUCAACACAGCGUGUCAAAGCGGCUGUGGCUAGACUGCC [G22U U28C]	0.42
GGCAGAGCUCAAAACAGCGUGGCAAAGGGGCUGUGGCUAGACUGCC [C13A U28G]	0.09
GGCAGAUCUCAACAAAGCGUGGCAAAGUGGCUGUGGCUAGACUGCC [G7U C15A]	0.16
GGCAGAGCCCAACACAGCGUGGCAAAGUGGCUGUGGCGAGACUGCC [U9C U38G]	0.04
GGCAGAGCUCAACACAGCGUGGCAAAAUGGCUGUGGCUAGGCUGCC [G27A A41G]	0.38
GGCAGAGCUCAACGCAGCGUGGCAAAGUGGCUGUGGCCAGACUGCC [A14G U38C]	0.15
GGCAAAGCUCAACACAGCGUGGCAAAGGGGCUGUGGCUAGACUGCC [G5A U28G]	0.2
AGCAGAGCUCAACACAGCGUGGCAAAUUGGCUGUGGCUAGACUGCC [G1A G27U]	1.95
GGCAGAGCUGAACACCGCGUGGCAAAGUGGCUGUGGCUAGACUGCC [C10G A16C]	0.02
